# Experimental data published in publication PMC7954794, “Protein context shapes the specificity of SH3 domain-mediated interactions in vivo” (Nature Communications, 2021).
# B1: YBL071W-A (protein, UniProt Q3E840 1-82, looked up)
# Diphthamide biosynthesis …: MSTYDEIEIEDMTFEPENQMFTYPCPCGDRFQIYLDDMFEGEKVAVCPSCSLMIDVVFDKEDLAEYYEEAGIHPPEPIAAAA
# B2: YLR258W (protein, UniProt P27472 1-705, looked up)
# Glycogen [starch] synthase …: MSRDLQNHLLFETATEVANRVGGIYSVLKSKAPITVAQYKDHYHLIGPLNKATYQNEVDILDWKKPEAFSDEMRPVQHALQTMESRGVHFVYGRWLIEGAPKVILFDLDSVRGYSNEWKGDLWSLVGIPSPENDFETNDAILLGYTVAWFLGEVAHLDSQHAIVAHFHEWLAGVALPLCRKRRIDVVTIFTTHATLLGRYLCASGSFDFYNCLESVDVDHEAGRFGIYHRYCIERAAAHSADVFTTVSQITAFEAEHLLKRKPDGILPNGLNVIKFQAFHEFQNLHALKKEKINDFVRGHFHGCFDFDLDNTLYFFIAGRYEYKNKGADMFIEALARLNYRLKVSGSKKTVVAFIVMPAKNNSFTVEALKGQAEVRALENTVHEVTTSIGKRIFDHAIRYPHNGLTTELPTDLGELLKSSDKVMLKRRILALRRPEGQLPPIVTHNMVDDANDLILNKIRQVQLFNSPSDRVKMIFHPEFLNANNPILGLDYDEFVRGCHLGVFPSYYEPWGYTPAECTVMGVPSITTNVSGFGAYMEDLIETNQAKDYGIYIVDRRFKAPDESVEQLVDYMEEFVKKTRRQRINQRNRTERLSDLLDWKRMGLEYVKARQLALRRGYPDQFRELVGEELNDSNMDALAGGKKLKVARPLSVPGSPRDLRSNSTVYMTPGDLGTLQEVNNADDYFSLGVNPAADDDDDGPYADDS
# B3: YOR229W (protein, UniProt Q12206 1-467, looked up)
# Transcriptional modulator WTM2: MAKSKSSQGASGARRKPAPSLYQHISSFKPQFSTRVDDVLHFSKTLTWRSEIIPDKSKGTLTTSLLYSQGSDIYEIDTTLPLKTFYDDDDDDDNDDDDEEGNGKTKSAATPNPEYGDAFQDVEGKPLRPKWIYQGETVAKMQYLESSDDSTAIAMSKNGSLAWFRDEIKVPVHIVQEMMGPATRYSSIHSLTRPGSLAVSDFDVSTNMDTVVKSQSNGYEEDSILKIIDNSDRPGDILRTVHVPGTNVAHSVRFFNNHLFASCSDDNILRFWDTRTADKPLWTLSEPKNGRLTSFDSSQVTENLFVTGFSTGVIKLWDARAVQLATTDLTHRQNGEEPIQNEIAKLFHSGGDSVVDILFSQTSATEFVTVGGTGNVYHWDMEYSFSRNDDDNEDEVRVAAPEELQGQCLKFFHTGGTRRSSNQFGKRNTVALHPVINDFVGTVDSDSLVTAYKPFLASDFIGRGYDD
# B4: YGR178C (protein, UniProt P53297 1-722, looked up)
# PAB1-binding protein 1: MKGNFRKRDSSTNSRKGGNSDSNYTNGGVPNQNNSSMFYENPEITRNFDDRQDYLLANSIGSDVTVTVTSGVKYTGLLVSCNLESTNGIDVVLRFPRVADSGVSDSVDDLAKTLGETLLIHGEDVAELELKNIDLSLDEKWENSKAQETTPARTNIEKERVNGESNEVTKFRTDVDISGSGREIKERKLEKWTPEEGAEHFDINKGKALEDDSASWDQFAVNEKKFGVKSTFDEHLYTTKINKDDPNYSKRLQEAERIAKEIESQGTSGNIHIAEDRGIIIDDSGLDEEDLYSGVDRRGDELLAALKSNSKPNSNKGNRYVPPTLRQQPHHMDPAIISSSNSNKNENAVSTDTSTPAAAGAPEGKPPQKTSKNKKSLSSKEAQIEELKKFSEKFKVPYDIPKDMLEVLKRSSSTLKSNSSLPPKPISKTPSAKTVSPTTQISAGKSESRRSGSNISQGQSSTGHTTRSSTSLRRRNHGSFFGAKNPHTNDAKRVLFGKSFNMFIKSKEAHDEKKKGDDASENMEPFFIEKPYFTAPTWLNTIEESYKTFFPDEDTAIQEAQTRFQQRQLNSMGNAVPGMNPAMGMNMGGMMGFPMGGPSASPNPMMNGFAAGSMGMYMPFQPQPMFYHPSMPQMMPVMGSNGAEEGGGNISPHVPAGFMAAGPGAPMGAFGYPGGIPFQGMMGSGPSGMPANGSAMHSHGHSRNYHQTSHHGHHNSSTSGHK
# B5: YNR007C (protein, UniProt P40344 1-310, looked up)
# Autophagy-related protein 3: MIRSTLSSWREYLTPITHKSTFLTTGQITPEEFVQAGDYLCHMFPTWKWNEESSDISYRDFLPKNKQFLIIRKVPCDKRAEQCVEVEGPDVIMKGFAEDGDEDDVLEYIGSETEHVQSTPAGGTKDSSIDDIDELIQDMEIKEEDENDDTEEFNAKGGLAKDMAQERYYDLYIAYSTSYRVPKMYIVGFNSNGSPLSPEQMFEDISADYRTKTATIEKLPFYKNSVLSVSIHPCKHANVMKILLDKVRVVRQRRRKELQEEQELDGVGDWEDLQDDIDDSLRVDQYLIVFLKFITSVTPSIQHDYTMEGW
# B6: YPL246C (protein, UniProt Q12270 1-262, looked up)
# Rhomboid-type serine protease …: MNWKSYVFPGGHPPAALTTGLVVFLTAIYLLSFIFALREDLSLAPESLFKLQMSRLSLYPLIHLSLPHLLFNVLAIWAPLNLFEETHGTVYTGVFLNLSALFAGILYCLLGKLLYPEALVAGASGWCFTLFAYYSFKESQIRPRTRIFRTDYSIPTLYTPLVLLVAIAVVIPGSSFWGHFFGLCVGYAIGYKESWFNKITPPGWIITKIEKSLDGLIRLIPWGIKYYRDEDIDRTKDYEPLMSTETPLPLHNDNSGTVLGTA
# B7: YJL151C (protein, UniProt P14359 1-133, looked up)
# Protein SNA3: MDRDHINDHDHRMSYSINKDDLLLMVLAVFIPPVAVWKRKGMFNRDTLLNLLLFLLLFFPAIIHACYVVYETSSERSYDLSRRHATAPAVDRDLEAHPAEESQAQPPAYDEDDEAGADVPLMDNKQQLSSGRT
# B8: YMR080C (protein, UniProt P30771 1-971, looked up)
# ATP-dependent helicase NAM7: MVGSGSHTPYDISNSPSDVNVQPATQLNSTLVEDDDVDNQLFEEAQVTETGFRSPSASDNSCAYCGIDSAKCVIKCNSCKKWFCNTKNGTSSSHIVNHLVLSHHNVVSLHPDSDLGDTVLECYNCGRKNVFLLGFVSAKSEAVVVLLCRIPCAQTKNANWDTDQWQPLIEDRQLLSWVAEQPTEEEKLKARLITPSQISKLEAKWRSNKDATINDIDAPEEQEAIPPLLLRYQDAYEYQRSYGPLIKLEADYDKQLKESQALEHISVSWSLALNNRHLASFTLSTFESNELKVAIGDEMILWYSGMQHPDWEGRGYIVRLPNSFQDTFTLELKPSKTPPPTHLTTGFTAEFIWKGTSYDRMQDALKKFAIDKKSISGYLYYKILGHQVVDISFDVPLPKEFSIPNFAQLNSSQSNAVSHVLQRPLSLIQGPPGTGKTVTSATIVYHLSKIHKDRILVCAPSNVAVDHLAAKLRDLGLKVVRLTAKSREDVESSVSNLALHNLVGRGAKGELKNLLKLKDEVGELSASDTKRFVKLVRKTEAEILNKADVVCCTCVGAGDKRLDTKFRTVLIDESTQASEPECLIPIVKGAKQVILVGDHQQLGPVILERKAADAGLKQSLFERLISLGHVPIRLEVQYRMNPYLSEFPSNMFYEGSLQNGVTIEQRTVPNSKFPWPIRGIPMMFWANYGREEISANGTSFLNRIEAMNCERIITKLFRDGVKPEQIGVITPYEGQRAYILQYMQMNGSLDKDLYIKVEVASVDAFQGREKDYIILSCVRANEQQAIGFLRDPRRLNVGLTRAKYGLVILGNPRSLARNTLWNHLLIHFREKGCLVEGTLDNLQLCTVQLVRPQPRKTERPMNAQFNVESEMGDFPKFQDFDAQSMVSFSGQIGDFGNAFVDNTELSSYINNEYWNFENFKSAFSQKQNRNEIDDRNLYQEEASHLNSNFARELQREEQKHELSKDFSNLGI
# Tests used:
# ABP1 = assay: DHFR-PCA on solid medium, bait ABP1 (Fig. 1B); format: cell-based, Saccharomyces cerevisiae; settings: bait ABP1, label = prey; for medrep (log2 median colony size normalized to plate background, PCA score): 2-4 replicates; for Ratio (SH3-deleted/WT medrep): only significant differences showed, PPIs completely lost have a ratio of 0.1 and the gained PPIs 2.5
# Excerpt: Supplement 41467_2021_21873_MOESM8_ESM.xlsx, sheet "Fig1B" | column: medsize; medrep; Ratio; Score
# Abp1 PPIs = assay: DHFR-PCA of Abp1 SH3-swapped baits (Fig. 2B-D, S2C, S2F); format: cell-based, Saccharomyces cerevisiae; settings: Fig2B; bait ABP1, label = prey; Replicates 4
# Excerpt: Having determined that multiple PPIs require SH3s, we asked whether the latter establish PPI specificity independently from their host proteins by swapping domains (Fig. 2A). Using the second round of genome editing, we individually replaced Abp1 SH3 with the 27 yeast SH3s and 3 human Abp1 orthologs’ SH3s (CTTN, HCLS1, and DBNL, Fig. 2B). The reintroduction of its own SH3 (Abp1SH3 in Abp1) reconstitutes almost perfectly Abp1’s interaction profile (Kendall’s τ = 0.93, Fig. 2B). […] No homologous SH3 domain fully re-establishes the normal Abp1 PPI profile (Fig. 2B and Supplementary Fig. 2C). However, we observe a significant correlation (cophenetic correlation = 0.20, p value = 0.005, Fig. 2C) between the similarity of PPI profiles (Fig. 2B) and the sequence similarity of the SH3s. […] Nonetheless, a subset of SH3-dependent PPIs is only observed with the endogenous domain. For instance, Hua2 and App1, both well-characterized partners of Abp1[14],[18],[19], are only detected when Abp1 contains its own SH3 (WT or swapped via editing). A given SH3 may therefore not be fully replaceable with other paralogous or orthologous domains. This pattern is confirmed by cellular growth phenotypic analyses (Supplementary Fig. 2D, E). PPIs, SH3 sequence similarity, and growth profiles under stress conditions are correlated (Supplementary Fig. 2D, E). This relationship is particularly clear when analyzing growth on media supplemented with hygromycin.
# The stuffing of YSC84 SH3 rendered the strain sterile and was therefore not used for this study as the assays require crosses. For genes containing two SH3s (BZZ1 and BEM1), a combination of this first stuffer with a second one ([…]) coding for a highly similar linker ([…]) was used, which allowed targeting each SH3 position independently. The two N-terminal domains of SLA1, which are separated by six nucleotides, were stuffed by a single stuffer. Cells containing pCAS were selected via the G418 resistance cassette from the plasmid on YPD plates (YPD + NAT 100 μg/ml (DHFR F[1,2] selection) + G418 200 µg/mL (Bioshop Canada)). Colonies were randomly selected and grown in YPD media without G418 to allow plasmid loss. The correct insertion of the stuffer was validated by PCR and Sanger sequencing. The SH3-swapped, -shuffled, and -mutated strains were constructed following a second CRISPR–Cas9 editing step with the same procedures. The stuffer sequences were targeted by specific gRNAs (one gRNA per stuffer) and replaced by PCR amplified specific SH3 (with 40 bp homology arms) or libraries of mutated SH3 domains for Deep Mutational Scanning (DMS) with 78 bp flanking homology regions. Validation of the SH3 domain insertions was done as we previously described except for DMS libraries (see below).
# The overall DHFR-PCA pipeline is based on Tarassov et al.[43] and the procedures have also been published as a visualized protocol. The screens were performed with robotically manipulated pin tools (BM5-SC1, S&P Robotics Inc.). First, the preys were cherry-picked from 96-well plates to omnitrays in a 384 format on YPD + HPH solid media. Plates were then combined into the 1536 format on YPD + HPH. The array was constituted of 575 preys previously shown to interact physically with at least one SH3-containing protein as reported in BioGRID V3.4.16 along with 40 negative controls. The prey array comprised a border of control strains of two rows and two columns corresponding to the PPI between LSM8-DHFR F[1,2] and CDC39-DHFR F[3]. This double border was used to remove border effects. Preys are present in duplicate at a randomized position in the 1536 array (except for YAL041W which is present four times per array). Baits were crossed with two prey plates, resulting in four independent bait–prey tests for each PPI. Baits were grown in liquid YPD + NAT and then transferred on solid YPD + NAT omnitrays. They were then replicated on YPD + NAT omnitrays in 1536 array format. […]
Molecule,"medrep (log2 median colony size normalized to plate background, PCA score) (ABP1)",Ratio (SH3-deleted/WT medrep) (ABP1),medrep (log2 median colony size normalized to plate background) (Abp1 PPIs),medsize (median colony size) (Abp1 PPIs)
B1,1.99,1.369,1.454,388
B2,1.989,2.5,–,–
B3,1.855,2.5,–,–
B4,1.414,2.5,–,–
B5,1.566,2.5,–,–
B6,1.384,2.5,–,–
B7,1.425,2.5,–,–
B8,1.542,2.5,–,–
